Test results taken from article PMC13193136.

Test system: SOX2 DNA-binding domain (human)
Experiment: PIC-NIC microarray
Conditions: Protein-specific binding buffers (Supplementary Methods, not in the material), PBM incubation 1 h at room temperature, hybridization simulated at 150 mM Na+ …

| Substance | binding signal (fold (reference)) | binding signal (fold signal vs intact duplex) (nick at position 3, 5' phosphate) |
| --- | --- | --- |
| SOX2 site intact | 1 |  |
| SOX2 site nick 3, 5'P retained |  | 3 |
